# Laboratory results: patent US20040038205A1
# Biological target: natural cellular receptor for the adenoviral fiber on 293 cells (human (293 human line)) (UniProt P78310)
# Test: cell-based or functional assay
# Sequence of UniProt P78310 (P78310 20-365): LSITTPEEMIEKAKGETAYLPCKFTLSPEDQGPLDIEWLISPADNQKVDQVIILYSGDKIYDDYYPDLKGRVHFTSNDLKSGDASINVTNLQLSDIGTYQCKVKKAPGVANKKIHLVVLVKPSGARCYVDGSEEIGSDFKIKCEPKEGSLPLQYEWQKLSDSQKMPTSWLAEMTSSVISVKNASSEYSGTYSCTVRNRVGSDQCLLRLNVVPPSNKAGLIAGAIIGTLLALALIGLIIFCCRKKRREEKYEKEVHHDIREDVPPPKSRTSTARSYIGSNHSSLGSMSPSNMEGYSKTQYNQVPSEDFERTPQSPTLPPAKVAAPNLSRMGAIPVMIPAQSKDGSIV
substance,measurement,value
native Ad5 fiber carried by the recombinant virus AdLacZ (from UniProt P11818 1-581),degree of inhibition of infection of 293 cells with AdLacZ by recombinant Ad5 knob at 100 µg/ml (LacZ-positive cells),95%
